Test results from the DeepSol protein solubility set.

Assay: soluble on expression in E. coli; label from the status in PepcDB or PDB records

Row | Sequence | soluble on expression in E. coli
1 | DSYYNGHQDGDAIAYLILANKLIHELCPDAITIAEEVSGMPGLALPLADGGYGFDYRLAMNIPDFWIKLIKEHRDEDWNPGDIWYQLTNRRQEEKTISYAESHDQALVGDKTIIFRLIDADMYWYMNKQSCVHSVDRGIALLKMIRLFTATTMNGGYLNFMGNEFGHPEWIDFPREGNGWSYKYARRQWSLADSPFLRYAGLHLFDQDMIAMIRSVESFHKLPLREYWLKREEQVICYGRGDFFFVFNFHPERSYSDYPIPLPAGKYSVAMSTDARKYEGFGRVDEWVEHFTLPDGSKDRFTHEQYLNLYLPARSALVLKLAE | not soluble
2 | SLENKIVKIEPQSIAEEMGIEVGDSLISINGKEVKDIIDYRFLMADEYVVVKIQKTNKEIWELEIEKEYDEKLGVEFESGILDSAKSCRNKCIFCFIDQLPKGMRKTLYFKDDDSRLSFLQGNFVTLTNMSDDDIDRIIKYRISPINISVQTTNPELRKKMLNNKFAGNLMERMKKLSNAGITMNCQVVLCPGINSGEEFSKTVNDLYKLYPSVKNIAGVPVGITSYREGLFNMVPYDSQSALKEIENIKPIQEKFIKEIGSPFVRLSDEFYVLSGIPIPKAEFYGEFEQFEDGIGMIRTFRDNINMSLDNLKDGIHKSFTMVTGVLAYEEIENAAKMLMEKSRGLKINVIKVINEFFGEKITVAGLLTGRDILNYLKRNEVGDYIILPSNMLKSDEDVFLDDVKVLDIEKELNKKVLVCNYSGEDLVDIINKNGREE | soluble
3 | NSLDNQVRLLLEDSVPKYNASYFLESKTSEINRRVEALQAVDNKVQLTEQAMQVNEQLASISTVLKSNKMSSEFYQLLESEAGLASLLEKYVDMISTRIDQTRRVDQLMEQINWLHQDIRSELKPVRQEVHWQIERVNDSKEIQNLLVQLSTLQRVIDIESAVYDMAIDVAGASMPEQVDNGMKVIHFRLMDLQESSTTLMNQPTSIAYKQLLQELVVVLSPEGAFDKQLMSLVTLNGDIQKIQEQIALSMEAIHQQIGELVSTADQTFKQVKSETAERVSYGN | not soluble
4 | AHHHHHHGSKVEKYAIIFGKNPELGLYELKAFSKRFKLGVRILEIRFYGPNKSFAIIQAKEEIEKKFKWLGGALKLVRIVGEGLDTIENLEYSKLFTVSLYGKEDWKAWRKLGSQVKAVFKRKDSSKFFKPANVYSMPSELILKGFPEVKDVVFLFVDKDRVLVGETIRITNPFELKKLDVERPIVRPTLSIPPRLARIMINLSEVRKGNVLDPFCGTGTILVELLLQGLIAYGSDISQERINDARKNIEWIRKEFRIKQNASLRVCDVRRLKKCFRTRFDAIITEPYMGRPLKTKPTREEAIKIAKQLDRLYYQAFESFSDVLKRNAKVVFVFPAFNLAEGGVYRRNRPWLEELGFKVEYSILDIDEKHRIGRDIYVIRY | soluble
5 | MGSDKIHHHHHHMRNAHDILDNIVYDFANATGLGSVAVDLNGKEISPWYNFTSFCQQVRQIAAYHPYCQQCDRCGGFESTKAKQIQCYRCHAGLVDFSIPIFINGNLTGFVSCGQARVAENLPLPKIVENDKNLPTESKLIELYHEVPELSLMKIKSAAQLLNLIIENYLSKEYNLRIVKNVSPVKNQKLETLGRHQATMEMILNHINQNFSDNLNLEQMASKANLSMFYFSRTFKELTGTGFTAYLINKRMTEAHCLLEQTNWSIEKIARSVGYNDVHYFSRLFKKTFNRSPSEFRNHSSGFSM | not soluble
6 | MIGIVMLSKIANIDAARQGLDLKVKVLSLNKKTIKNDRGETTYFYGIIGDDTGTVSFTAWSFPAAVKSGDVVEIKNCYSSLYNGKIRIYVDSRSQVVLKPDEYLEVKRTVELVKLRDLSLTTPYVSVIGRISGIKEKNYDSDRGSKIVYQGFIEDETAKVRISSFGKPLKDGEIVRVENARVSQYNGYMGISIGENSSIDNVQAQIEVGSRPIFIAEIKSPIGGVTITGFAVSVGQGSRIFTKCSICKKILEDGKCKDHPRAPVYLDIFGYFLLSDGTGSLTCYLNKDSFLPYIKMDTEEFKSQAFSMNPNMLIKKNILGKCLSVTGDLRLRDDKITMNASSIKEADADSVKDIEKTIQEEFQLEHHHHHH | not soluble
7 | MGNQSARQLSTHRKHVVHTWNTINSHDPQLLSDAISEAWLKSAELTPTWVWALVDLPETMHATYKENAQFLNIINQVRDFLNILIKVHKCDPEMIKTLSFRLGARHRHYMNEGNDNCFWAPFAQQLPIAMSKMYMRVVTEDSKIRRILRIRSRAAEKSEEEEVCESWRQFSCMLIESMKRGYEGCASEKTPLRLSITNSIISMASMRSSRSRSASHFLEPNMSPAIAPMCALLGSTESNSTTTTTQPSSPITPYRRRSMFRAGGALQRNSQDFTALRNRRMSSPNNPSILLNNCDIQLLKLTSQLSPLEDQVKQNRVPGRAHQQRRSITLLNFDHHHRARSPTT | not soluble
8 | MGSDKIHHHHHHMEKTMDRIYKIGGHCFALPDERLMEAVDGISGFKPFVWQPDLVSAKDVYEGAWLPDFTVWEGNGWGFPAFQRKSYGFGYEDVTGTFGVSGDSFLLELAPQGEPSLYLRTMGGTGRGICLYGNYSPRLLRFALWMGYGLMTVRKDTVALHGSCIVYKGKAVLFLGESGTGKSTHTRLWRENIAGSKLLNDDSPIVRYEEGGVWVYGSPWSGKTPCYKAERYPLAGCVRLSQAPYNKIRRLNTLQAYAALHPSAPPAFAYEEELYCGVCSLLEKMVSSIPVYHLECLPDAEAVKLVCRTLYGDGYEADSE | not soluble
9 | MGGSHHHHHHGMASETGPEDPSSMPEESSPRRTPQSIPYQDLPHLVNADGQYLFCRYWKPTGTPKALIFVSHGAGEHSGRYEELARMLMGLDLLVFAHDHVGHGQSEGERMVVSDFHVFVRDVLQHVDSMQKDYPGLPVFLLGHSMGGAIAILTAAERPGHFAGMVLISPLVLANPESATTFKVLAAKVLNLVLPNLSLGPIDSSVLSRNKTEVDIYNSDPLICRAGLKVCFGIQLLNAVSRVERALPKLTVPFLLLQGSADRLCDSKGAYLLMELAKSQDKTLKIYEGAYHVLHKELPEVTNSVFHEINMWVSQRTATAGTASPP | not soluble
10 | MKIEHLQHPTTHQLDQLMTIWLSGNLTAHDFVSADYWRQQAPLVREALQSAELIVGLTDGPEAYILGFIGLQNDYIAGIFICNDAQHQGLGTALLATAQADYHQLQLNVYVANRPAIAFYHYHGFRVIDQASDQATQQSEYTMQWQR | not soluble
11 | MSLAKGGKRMRRTLAGIAAVLGLALGQQQVTLFWSGAITGPTSDAGAPYGAAVEDYCKWANERKLVPGVVFNCVVRDDQYNNANTQRFFEEAVDRFKIPVFLSYATGANLQLKPLIQELRIPTIPASMHIELIDPPNNDYIFLPTTSYSEQVVALLEYIAREKKGAKVALVVHPSPFGRAPVEDARKAARELGLQIVDVQEVGSGNLDNTALLKRFEQAGVEYVVHQNVAGPVANILKDAKRLGLKMRHLGAHYTGGPDLIALAGDAAEGFLWATSFYMAHEDTPGIRLQKEIGRKYGRPENFIESVNYTNGMLVASIAVEAIRRAQERFKRITNETVYQAIVGMNGPNAFKPGFAVSTKQGVEIDFTKSEHTGAEGLRILEAKGGRFVPVTEPFTSALFRKVHYGEGHHHHHH | soluble
12 | MSDAPTVVAYLGPAGTFTEEALYKFADAGVFGDGEIEQLPAKSPQEAVDAVRHGTAQFAVVAIENFVDGPVTPTFDALDQGSNVQIIAEEELDIAFSIMVRPGTSLADVKTLATHPVGYQQVKNWMATTIPDAMYLSASSNGAGAQMVAEGTADAAAAPSRAAELFGLERLVDDVADVRGARTRFVAVQAQAAVSEPTGHDRTSVIFSLPNVPGSLVRALNEFAIRGVDLTRIESRPTRKVFGTYRFHLDISGHIRDIPVAEALRALHLQAEELVFVGSWPSNRAEDSTPQTDQLAKLHKADEWVRAASEGRKLN | soluble
13 | MAHHHHHHMGNTVPYNCYERWGKRTPDGPLLNYDPQMPNSGTLSVLLENFDYESTEESNNKCEYIINKEPIEKNNNMNPKVIRNARRRPTYSPTARKINIQSDDEEEDEDDDEKLSTDDSDENISAKDIKDEKIQQYRKTLTKIVKIKTAIFHETVKVTCSKDGKMLEWYKGKNDSDGKKKPIGSFPLNKITSIRTKVDNLKSLEISVSSVHISTYLFTFKTREERESWQNNLESFRKIMSMK | not soluble
14 | MATKPQDANTTSREAITSKADSPPRPTALIFDSGVGGLSVYQEIRQLLPDLHYIYAFDNVAFPYGEKSGEFIVERVLEIVTAVQQRHPLAIVVIACNTASTVSLPALRERFAFPVVGVVPAIKPAVRLTRNGVVGLLATRATVHASYTLDLIARFATDCKIELLGSSELVEVAETKLHGGVVPLEVLKKILHPWLSMREPPDTIVLGCTHFPLLTEELAQVLPEGTRMVDSGAAIARRTAWLISSQENVISSQDENIAYCMALDEDTDALLPVLQSYGFPKLQKLPI | not soluble
15 | MSHQDDYLSVEELIEIQKEETRDIIQALLEDGSDPDALYEIEHHLFAEDFDKLEKAAVEAFKMGFEVLEAEETEDEDGNKLLCFDATMQSALDAKLIDEQVEKLVNLAEKFDIIYDGWGTYYEGLEHHHHHH | soluble
16 | MAHHHHHHMSLNLAEAADERSQREMEKYLVERVAGQGTFGTVQLAREKNTGVNVAIKKVIQDPRFKNRELQIMQDLSRLRHPNIVLLKNYFYTVLGDHRHNDVYLNVVMEFVPDTLHRVCRAYYRRLASPPMILVKVFMYQLLRGIACLHLPAVNVCHRDIKPHNVLVDESTGDLKLCDFGSAKKLSPSEPNVAYICSRYYRAPELIFGNQYYSTAVDVWSVGCIFAEMLLGEPIFCGENTSGQLREIVRVLGRPSREELHKLSTSNVELNVPTNKSTPWEDVFKRPLPAEVYDLCAKIFKYLPEQRITPLEAICHPFFDELHDATVKLPSGNALPAHLFTFLPEEINEMTEAQRSQLVQK | soluble
17 | MGSDKIHHHHHHMTTSTPSASPLALSPSRANDYQQCPLLYRFRAIDKLPEPKTVAQVKGTLVHAVLEEMHGWPRNERLFPAAVKRLKPHWSLMCSKDTELVSLVPEEDTYDFLVECRSLLRGYFEMENPQGFDALACEMYVNATLPNGVPIRGFIDRVDKAPTGEIRVVDYKTGKKPIPRFSQQAQFQMRFYALVYWRIYGRIPDQLRLMYLKVADSMFLTPSREELEYFERDIQELWEKIVTDGETGQFRPKTSKLCGWCSFQNLCPAFDGTPPAYPGWPGIADAPPCSTVDASKGLTG | not soluble
18 | MLSHETIWSAIDTLAERHQLTPSALAKRAGLDPTSFNKSKRFGPDGRKRWPSTESVSKVLEATGASVDQFFGYAFGRAQTMQPSGADNAIPLLGFAQAGSGGFFDDGGFPAGQGWDVVEFPSSPERKQGVYALEVQGESMMPLYRDGDILIVEPGAPVRRGDRVVLKSRDGEVMAKVLARQSPKNIELLSLNPEHPNRSFDMADVEWIARIIWASQ | not soluble
19 | MAHQTGIHATEELKEFFAKARAGSVRLIKVVIEDEQLVLGASQEPVGRWDQDYDRAVLPLLDAQQPCYLLYRLDSQNAQGFEWLFLAWSPDNSPVRLKMLYAATRATVKKEFGGGHIKDELFGTVKDDLSFAGYQKHLSSCAAPAPLTSAERELQQIRINEVKTEISVESKHQTLQGLAFPLQPEAQRALQQLKQKMVNYIQMKLDLERETIELVHTEPTDVAQLPSRVPRDAARYHFFLYKHTHEGDPLESVVFIYSMPGYKCSIKERMLYSSCKSRLLDSVEQDFHLEIAKKIEIGDGAELTAEFLYDEVHPKQHAFKQAFAKPKGPGGKRGHKRLIRGPGENGDDS | soluble
20 | MAHHHHHHMSKDGNCGGCSAPWGKMPQSPMTPLSDARDSPTAPLCSHSAFSKVNKESSEEESFVVGKYQTSMCPICLESFTHENPAVVVGCGHSFHLQCVEDWRQRSPICPVCMIVLRGDGLPMHTGRQSQRPSEVSPSQRKGRATTSTMTSASSGTTFMVTAGGVHGRVLDTKPPSVVNASAGVEGSGSVVDVGNVSFLSRVRRCMKFCCTCEDDL | not soluble
